From patent US20240139239A1

Biological target: OVA peptide 323-339 presented on MHC-II molecules (Gallus gallus (Chicken)) (UniProt P01012)

proliferation (CTVlow) of OT-II CD4+ T cells after 5 days of co-culture with peptide-loaded PIP-induced cells: 10.7%
Sequence: T cell receptor of OT-II CD4+ T cells, specific for ovalbumin (OVA) peptide presented in the context of MHC-II molecules (TCR)
